Measured values reported in paper PMC8342441.
One block for each substance: values may come before it.

Target: β-arrestin 2-Rluc (UniProt P32121)
Experiment: BRET (β-arrestin 2 recruitment)
Conditions: point at the highest AngII dose, read off a plot
[1] = HEK293 cells, Log[AII] = -5 M, parent: est. 0.37
[2] = Log[AngII] = -4 M, parent: est. 0.086
[3] = HEK293 cells, left plot, Log[AII] = -5 M, parent: est. 0.36
[4] = HEK293 cells, right plot, Log[AII] = -5 M, parent: est. 0.35

response [1]: 0.36 ΔBRET
Substance: YFP-tagged WT angiotensin II type 1 receptor (AT1 receptor) (from UniProt P30556) D2.50N

response [2]: 0.065 ΔBRET
Substance: YFP-tagged WT angiotensin II type 1 receptor (AT1 receptor) (from UniProt P30556) F1.48A; L1.52A; I1.57A

response [3]: 0.26 ΔBRET
Substance: YFP-tagged WT angiotensin II type 1 receptor (AT1 receptor) (from UniProt P30556) F8.54W

response [4]: 0.055 ΔBRET
Substance: YFP-tagged WT angiotensin II type 1 receptor (AT1 receptor) (from UniProt P30556) Y7.53A

response [4]: 0.25 ΔBRET
Substance: YFP-tagged WT angiotensin II type 1 receptor (AT1 receptor) (from UniProt P30556) N7.49A

response [3]: 0.09 ΔBRET
Substance: YFP-tagged WT angiotensin II type 1 receptor (AT1 receptor) (from UniProt P30556) F7.55W

response [2]: 0.006 ΔBRET
Substance: YFP-tagged WT angiotensin II type 1 receptor (AT1 receptor) (from UniProt P30556) N7.49A; P7.50A; F7.55A

response [1]: 0.41 ΔBRET
Substance: YFP-tagged WT angiotensin II type 1 receptor (AT1 receptor) (from UniProt P30556) Y7.53I

response [1]: 0.12 ΔBRET
Substance: YFP-tagged WT angiotensin II type 1 receptor (AT1 receptor) (from UniProt P30556) N3.35A

response [3]: 0.05 ΔBRET
Substance: YFP-tagged WT angiotensin II type 1 receptor (AT1 receptor) (from UniProt P30556) G1.49L

response [2]: 0.006 ΔBRET
Substance: YFP-tagged WT angiotensin II type 1 receptor (AT1 receptor) (from UniProt P30556) K8.49A; F8.50A; K8.51A; Y8.53A; F8.54A
